What was measured:
Human CXCR2 [1] = target: T1, Human CXCR2 (Homo sapiens, UniProt P25025); experiment: cELISA of hybridoma supernatants on cells transfected with human CXCR2; type: binding; set-up: host or cells: Expi293F cells, vector pTT5; conditions: hybridoma supernatant; fluorescence units relative to positive control (100%)
T1 sequence (P25025 1-360): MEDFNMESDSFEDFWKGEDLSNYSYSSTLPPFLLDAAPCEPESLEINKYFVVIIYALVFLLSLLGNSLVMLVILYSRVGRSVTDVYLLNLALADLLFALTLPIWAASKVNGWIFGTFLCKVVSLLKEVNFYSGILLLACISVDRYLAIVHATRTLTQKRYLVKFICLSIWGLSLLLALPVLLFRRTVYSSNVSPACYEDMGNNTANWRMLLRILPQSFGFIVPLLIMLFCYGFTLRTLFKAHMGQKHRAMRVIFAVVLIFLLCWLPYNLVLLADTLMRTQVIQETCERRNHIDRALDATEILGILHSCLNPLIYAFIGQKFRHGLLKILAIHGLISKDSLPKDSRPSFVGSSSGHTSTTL
Description: To generate hybridomas which produced monoclonal antibodies to human CXCR2, splenocytes and/or lymph node cells from animals with the highest anti-CXCR2 titres were isolated and fused to mouse myeloma cells (ATCC, CRL-1580). Cells were plated at approximately 1×10^5 cells/mL in flat bottom microtiter plates, followed by a two week incubation in selective medium (10% FCS and 1×HAT (Sigma)). Hybridomas were expanded by serial passage through four media changes in 96-well plates (96-well stages 1 to 4), then, where required, expanded into T25 and T75 flasks. […] Bound antibodies were detected using a goat anti-rat IgG-HRP (Southern Biotech, #3030-05) secondary antibody.
A panel of hybridomas was generated using lymph nodes and spleen cells from the transgenic rats engineered to express human variable region sequences. A cellular ELISA (cELISA) was used to detect human CXCR2 binding activity in supernatants taken during the expansion process for the hybridomas (Table 5). Hybridomas that retained expression of antibodies that bound CXCR2 after several passages were selected for DNA sequencing.

Human CXCR2 [2] = target: T1, Human CXCR2; experiment: Calcium flux assay, HTS002C-CHEMISCREEN human CXCR2 calcium-optimized cell line; type: cell-based
Description: One of the signaling pathways downstream of CXCR2 activation that has a role in cell chemotaxis is characterized by calcium mobilization (flux). The ability of BKO-4A8-101c to inhibit human CXCR2 ligand-induced calcium flux was tested in the commercially available HTS002C-CHEMISCREEN™ human CXCR2 chemokine receptor calcium-optimized cell line.
The Fluo-4 NW calcium assay kit (Life Technologies) was used according to manufacturer's protocol for in-cell measurement of calcium mobilization, which was read using a FLIPR Tetra high-throughput cellular screening system (Molecular Devices). The peak response minus the basal response from each well was used to determine inhibition dose response curves fitting a four-parameter logistic equation and IC50 values.

[3] = test system: human CXCR family members (CXCR1, CXCR3, CXCR4, CXCR5, CXCR6, CXCR7); experiment: Flow cytometry binding to other human CXCR family members on transfected Expi293F cells; conditions: FIG. 11
Description: Harvested cells were resuspended in FACS buffer (1×PBS+0.5% (w/v) bovine serum albumin (BSA)+2 mM EDTA pH 7.2). Approximately 2×10^5 cells were added per well in a 96-well round-bottomed plate. Cells were pelleted by centrifugation at 400 g for 5 mins at 4° C. and supernatants discarded. 25 μL of each test antibody or control antibody was added to the cells and incubated for 30 minutes at 4° C. Cells were washed twice in 100 μL FACS buffer followed by centrifugation at 400 g for 5 mins at 4° C.
For detection, 50 μL of secondary antibody (Table 2) was added to relevant samples. Commercially available antibodies that bound to transfected CXCR family members were used as positive controls to ensure that the cells were expressing the receptors. Cells were washed twice in 200 μL of FACS buffer followed by centrifugation at 400 g for 5 mins at 4° C. Before sample acquisition, cells were resuspended in 100 μL of FACS buffer. Samples were acquired using the high throughput sampler on a FACSCanto™ II cytometer (Beckton-Dickinson). […]
The specificity of the anti-CXCR2 antibody BKO-4A8-101c was tested by assessing binding activity on Expi293F™ cells transiently transfected to express closely related human CXCR family members as illustrated in FIG. 11. Binding of BKO-4A8-101c was detected by incubation of fluorochrome-conjugate anti-human IgG antibody.

B1: BKO-4A8: parental anti-CXCR2 antibody, VH SEQ ID NO: 17, VL SEQ ID NO: 18 (antibody, V domains shown)
VH: EVQLLESGGGLVQPGGSLRLSCAASGFTFSSSTMSWVRQAPGKGLEWVSAISGRGRNTYYADSVKGRFTISRDNSRNTLYLQMNSLRAEDTAVYYCAIQMGYWGQGILVTVSS
VL: QSALTQPPSASGSPGQSVTISCIGTSSDVGGYNYVSWYQQHPDKAPKLMIYEVNKRPSGVPDRFSGSKSGNTASLTVSGLQAEDEADYYCSSYAGNNNFGVFGGGTKLTVL
modifications: BKO_4A8_VH; BKO_4A8_VL
Human CXCR2 [1]
  Human CXCR2 % Positive: 110%

B2: 101c: VH SEQ ID NO: 108, VL SEQ ID NO: 110; renamed BKO-4A8-101c (antibody, V domains shown)
VH: EVQLLESGGGLVQPGGSLRLSCAASGFTFSSSTQSWVRQPPGKGLEWVSAISGRGRSTYYADSVKGRFTISRDNSKNTLYLQMNSLRAEDTAVYYCAIQAGYWGQGILVTVSS
VL: QSALTQPPSASGSPGQSVTISCIGTSSDVGGYNYVSWYQQHPGKAPKLMIYEVSKRPSGVPDRFSGSKSGNTASLTVSGLQAEDEADYYCSSYAGSNNFGVFGGGTKLTVL
modifications: 4A8 VH Variant 101 M34Q_A40P_N56S_R75K_M96A; 4A8 VL variant c D41G_N52S_N94S
notes: renamed BKO-4A8-101c
Human CXCR2 [2]; CXCL1 at EC50
  CXCL1 Maximal Inhibition %: 93%
Human CXCR2 [2]; CXCL8 at EC50
  CXCL8 Maximal Inhibition %: 9%
Human CXCR2 [2]; Hu CXCL1
  Maximal Inhibition % Mean: 91%
Human CXCR2 [2]; Hu CXCL2
  Maximal Inhibition % Mean: 88%
Human CXCR2 [2]; Hu CXCL3
  Maximal Inhibition % Mean: 52%
Human CXCR2 [2]; Hu CXCL5
  Maximal Inhibition % Mean: 81%
Human CXCR2 [2]; Hu CXCL6
  Maximal Inhibition % Mean: 81%
Human CXCR2 [2]; Hu CXCL7
  Maximal Inhibition % Mean: 43%
Human CXCR2 [2]; Hu CXCL8
  Maximal Inhibition % Mean: 9%
[3]
  specificity of binding among human CXCR family members: strongly and exclusively bind human CXCR2

Reference: patent publication US12018084B2, “Anti-CXCR2 antibodies and uses thereof” (Cephalon LLC, priority 2018, dated 2024)
